{"source": "paper PMC9135708", "about": "(2022)", "binders": {"B1": {"name": "Plasmodium falciparum TRAP ectodomain (PfTRAP) (domain or fragment)", "chain": "RDVQNNIVDEIKYSEEVCNDQVDLYLLMDCSGSIRRHNWVNHAVPLAMKLIQQLNLNDNAIHLYVNVFSNNAKEIIRLHSDASKNKEKALIIIRSLLSTNLPYGRTNLTDALLQVRKHLNDRINRENANQLVVILTDGIPDSIQDSLKESRKLSDRGVKIAVFGIGQGINVAFNRFLVGCHPSDGKCNLYADSAWENVKNVIGPFMKAVCVEVEKTASCGVWDEWSPCSVTCGKGTRSRKREILHEGCTSEIQEQCEEERCPPKWEPLDVPDEPEDDQPRPRGDNSSVQKPEENIIDNNPQEPSPNPEEGKDENPNGFDLDENPENPPNPDIPEQKPNIPEDSEKEVPSDVPKNPEDDREENFDIPKKPENKHDNQNNLPNDKSDRNIPYSPLPPKVLDNERKQSDPQSQDNNGNRHVPNSEDRETRPHGRNNENRSYNRKYNDTPKHPEREEHEKPDNNKKKGESDNKYK", "modifications": "site-specific biotinylation using BirA ligase, when required"}, "B2": {"name": "Plasmodium yoelii TRAP ectodomain (PyTRAP) (domain or fragment)", "chain": "NGQETLDEIKYSEEVCTEQIDIHILLDGSGSIGYSNWKAHVIPMLNTLVDNLNISNDEINVSLTLFSTNSRELIKLKGYGSTSKDSLRFILAHLQNNYSPNGNTNLTSALLVVDTLINERMYRPDAIQLAIILTDGIPNDLPRSTAVVHQLKRKHVNVAIIGVGAGVNNEYNRILVGCDRYAPCPYYSSGSWNEAQNMIKPFLTKVCQEVERIAHCGKWEEWSECSTTCDEGRKIRRRQILHPGCVSEMTTPCKVRDCPQIPIPPVIPNKIPEKPSNPEEPVNPNDPNDPNNPNNPNNPNNPNNPNNPNNPNNPNNPNNPNNPNNPNNPNNPNNPNNPNNPNNPNNPNNPNNPNNPNNPNDPSNPNNPNPKKRNPKRRNPNKPKPNKPNPNKPNPNEPSNPNKPNPNEPSNPNKPNPNEPSNPNKPNPNEPSNPNKPNPNEPLNPNEPSNPNEPSNPNAPSNPNEPSNPNEPSNPNEPSNPNEPSNPNEPSNPKKPSNPNEPSNPNEPLNPNEPSNPNEPSNPNEPSNPEEPSNPKEPSNPNEPSNPEEPNPEEPSNPKEPSNPEEPINPEELNPKEPSNPEESNPKEPINPEESNPKEPINPEDNENPLIIQDEPIEPRNDSNVIPILPIIPQKGNNIPSNLPENPSDSEVEYPRPNDNGENSNNTMKSKKNIPNEPIPSPGDNPYKGHEERIPKPHRSNDDYVYDNNVNKNNKDEPEIPNNEYEEDKNKNQSKSNNGYK", "modifications": "site-specific biotinylation using BirA ligase, when required"}}, "assay_in_all_cases": "BLI", "key": {"AKBR-5": {"biological_target": "AKBR-5"}, "AKBR-1": {"biological_target": "AKBR-1"}, "TY19": {"biological_target": "TY19"}, "TY01": {"biological_target": "TY01"}, "TY07": {"biological_target": "TY07"}}}
{"binder": "B1", "values": [{"measurement": "Kd", "setting": "AKBR-5", "value": 52.9, "unit": "nM"}, {"measurement": "koff", "setting": "AKBR-5", "value": 0.00611, "unit": "s⁻¹"}, {"measurement": "Kd", "setting": "AKBR-1", "value": 194, "unit": "nM"}, {"measurement": "koff", "setting": "AKBR-1", "value": 0.00368, "unit": "s⁻¹"}]}
{"binder": "B2", "values": [{"measurement": "Kd", "setting": "TY19", "value": 307, "unit": "nM"}, {"measurement": "koff", "setting": "TY19", "value": 0.0495, "unit": "s⁻¹"}, {"measurement": "Kd", "setting": "TY01", "value": 1.65, "unit": "nM"}, {"measurement": "koff", "setting": "TY01", "value": 0.000498, "unit": "s⁻¹"}, {"measurement": "Kd", "setting": "TY07", "value": 26.5, "unit": "nM"}, {"measurement": "koff", "setting": "TY07", "value": 0.00397, "unit": "s⁻¹"}]}
